In assay [1] the target is T1, human CD3 (TCR/CD3 complex on the cell surface) (human, UniProt P07766 23-207; P04234 22-171; P09693 23-182).
T1 construct: whole, on cells; Native CD3 on human Pan-T cells or Jurkat wild-type cells; also called CD3 on Pan-T cells; CD3 on Jurkat WT cells
Kind of assay: flow cytometry, Pan-T cells, 1 ug/mL. On the technique in general: A flow cytometer gives signals particle by particle.

Assay [2] addresses T1, human CD3 (TCR/CD3 complex on the cell …). Kind of assay: flow cytometry, Pan-T cells, 10 ug/mL.
Assay [3] shares this target. Nature of the assay: flow cytometry, Jurkat WT cells, 1 ug/mL.
Assay [4] shares this target. Kind of assay: flow cytometry, Jurkat WT cells, 10 ug/mL.
The target is the same in assay [5]. Kind of assay: flow cytometry, Jurkat WT gMFI over Jurkat KO gMFI, 1 ug/mL.
The target is the same in assay [6]. Nature of the assay: flow cytometry, Jurkat WT gMFI over Jurkat KO gMFI, 10 ug/mL.

T1 sequence (P07766 23-207, chain 1 of 3): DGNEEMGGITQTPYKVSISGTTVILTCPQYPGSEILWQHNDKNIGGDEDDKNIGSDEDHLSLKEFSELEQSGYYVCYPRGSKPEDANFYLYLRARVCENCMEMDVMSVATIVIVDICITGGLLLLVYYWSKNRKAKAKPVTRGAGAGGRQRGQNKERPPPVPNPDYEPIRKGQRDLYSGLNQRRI
T1 sequence (P04234 22-171, chain 2 of 3): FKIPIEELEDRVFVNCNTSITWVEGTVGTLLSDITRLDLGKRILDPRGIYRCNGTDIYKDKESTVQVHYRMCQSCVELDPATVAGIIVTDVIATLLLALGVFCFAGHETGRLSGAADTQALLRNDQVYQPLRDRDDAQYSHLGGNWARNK
T1 sequence (P09693 23-182, chain 3 of 3): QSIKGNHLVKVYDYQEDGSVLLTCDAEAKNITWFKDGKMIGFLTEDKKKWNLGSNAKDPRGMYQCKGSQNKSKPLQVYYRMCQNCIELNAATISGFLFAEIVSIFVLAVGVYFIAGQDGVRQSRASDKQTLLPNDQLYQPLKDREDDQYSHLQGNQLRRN

B1: CD3 × CD33-BspAb76 (bispecific antibody)
chain 1: EVQLVESGGGLVKPGGSLRLSCAASGFTFSSYSMNWVRQAPGKCLEWVSSISRRSGYIYYADSVKGRFTLSRDNAKKSLYLQMNSLRAEDTAVYYCARDLNWAFDYWGQGTLVTVSSGGGGSGGGGSGGGGSGGGGSNFMLTQPHSVSESPGKTVTISCTRSSGSIASNYVQWYQQRPGSSPTTVIYEDNHRPSGVPDRFSGSIDSSSNSASLTIAGLKTEDEADYYCQSSDSSNVVFGCGTKLTVLDKTHTCPPCPAPEFEGGPSVFLFPPKPKDTLMISRTPEVTCVVVDVSHEDPEVKFNWYVDGVEVHNAKTKPREEQYNSTYRVVSVLTVLHQDWLNGKEYKCKVSNKALPASIEKTISKAKGQPREPQVYTLPPCREEMTKNQVSLWCLVKGFYPSDIAVEWESNGQPENNYKTTPPVLDSDGSFFLYSKLTVDKSRWQQGNVFSCSVMHEALHNHYTQKSLSLSPGK
chain 2: EVQLVQSGAEVKKPGSSVKVSCKASGYTITDSNIHWVRQAPGQSLEWIGYIYPYNGGTDYNQKFKNRATLTVDNPTNTAYMELSSLRSEDTAFYYCVNGNPWLAYWGQGTLVTVSSASTKGPSVFPLAPSSKSTSGGTAALGCLVKDYFPEPVTVSWNSGALTSGVHTFPAVLQSSGLYSLSSVVTVPSSSLGTQTYICNVNHKPSNTKVDKRVEPKSCDKTHTCPPCPAPEFEGGPSVFLFPPKPKDTLMISRTPEVTCVVVDVSHEDPEVKFNWYVDGVEVHNAKTKPREEQYNSTYRVVSVLTVLHQDWLNGKEYKCKVSNKALPASIEKTISKAKGQPREPQVCTLPPSREEMTKNQVSLSCAVKGFYPSDIAVEWESNGQPENNYKTTPPVLDSDGSFFLVSKLTVDKSRWQQGNVFSCSVMHEALHNRFTQKSLSLSPGK
chain 3: DIQLTQSPSTLSASVGDRVTITCRASESLDNYGIRFLTWFQQKPGKAPKLLMYAASNQGSGVPSRFSGSGSGTEFTLTISSLQPDDFATYYCQQTKEVPWSFGQGTKVEVKRTVAAPSVFIFPPSDEQLKSGTASVVCLLNNFYPREAKVQWKVDNALQSGNSQESVTEQDSKDSTYSLSSTLTLSKADYEKHKVYACEVTHQGLSSPVTKSFNRGEC
For B1, the “% Positive” value in assay [1] is 50.2%; in assay [2], 99.5%. In addition, the gMFI was determined as 6790 gMFI in assay [1], 43400 gMFI in assay [2], 3180 gMFI in assay [3] and 9780 gMFI in assay [4]. In addition, the “Jurkat WT/KO (Fold)” value in assay [5] came to 1.5 fold; in assay [6], 4.4 fold.

B2: CD3 × CD33-BspAb79 (bispecific antibody)
chain 1: QVQLQESGPGLVKPSETLSLTCTVSGGSISSYYWSWIRQPAGKCLEWIGRIYASGSTYYNPSLKSRVTMSVDTSKNQFSLKLSSVTAADTAVYYCAREKRSRLYFDYWGQGTLVTVSSGGGGSGGGGSGGGGSGGGGSNFMLTQPHSVSESPGKTVTISCTRSSGSIASNYVQWYQQRPGSSPTTVIYEDNQRPSGVPDRFSGSIDSSSNSASLTISGLKTEDEGDYYCQSYDRSNRVFGCGTKLTVLDKTHTCPPCPAPEFEGGPSVFLFPPKPKDTLMISRTPEVTCVVVDVSHEDPEVKFNWYVDGVEVHNAKTKPREEQYNSTYRVVSVLTVLHQDWLNGKEYKCKVSNKALPASIEKTISKAKGQPREPQVYTLPPCREEMTKNQVSLWCLVKGFYPSDIAVEWESNGQPENNYKTTPPVLDSDGSFFLYSKLTVDKSRWQQGNVFSCSVMHEALHNHYTQKSLSLSPGK
chain 2: EVQLVQSGAEVKKPGSSVKVSCKASGYTITDSNIHWVRQAPGQSLEWIGYIYPYNGGTDYNQKFKNRATLTVDNPTNTAYMELSSLRSEDTAFYYCVNGNPWLAYWGQGTLVTVSSASTKGPSVFPLAPSSKSTSGGTAALGCLVKDYFPEPVTVSWNSGALTSGVHTFPAVLQSSGLYSLSSVVTVPSSSLGTQTYICNVNHKPSNTKVDKRVEPKSCDKTHTCPPCPAPEFEGGPSVFLFPPKPKDTLMISRTPEVTCVVVDVSHEDPEVKFNWYVDGVEVHNAKTKPREEQYNSTYRVVSVLTVLHQDWLNGKEYKCKVSNKALPASIEKTISKAKGQPREPQVCTLPPSREEMTKNQVSLSCAVKGFYPSDIAVEWESNGQPENNYKTTPPVLDSDGSFFLVSKLTVDKSRWQQGNVFSCSVMHEALHNRFTQKSLSLSPGK
chain 3: DIQLTQSPSTLSASVGDRVTITCRASESLDNYGIRFLTWFQQKPGKAPKLLMYAASNQGSGVPSRFSGSGSGTEFTLTISSLQPDDFATYYCQQTKEVPWSFGQGTKVEVKRTVAAPSVFIFPPSDEQLKSGTASVVCLLNNFYPREAKVQWKVDNALQSGNSQESVTEQDSKDSTYSLSSTLTLSKADYEKHKVYACEVTHQGLSSPVTKSFNRGEC
Regarding B2, the “% Positive” value in assay [1] amounted to 99.3%; in assay [2] it was 99.4%. In addition, the gMFI in assay [1] was 34700 gMFI; in assay [2] it was 166000 gMFI; in assay [3], 8830 gMFI; in assay [4], 20400 gMFI. In addition, the “Jurkat WT/KO (Fold)” value in assay [5] came out at 4 fold; in assay [6] it was 8.9 fold.

B3: CD3 × CD33-BspAb77 (bispecific antibody)
chain 1: EVQLVESGGGLVKPGGSLRLSCAASGFTFSTYIMNWVRQAPGKCLEWVSSISSSRSYIYYADSVKGRFTISRDNAKNSLYLQMNSLRAEDTAVYYCAREDRYRLFFDYWGQGTLVTVSSGGGGSGGGGSGGGGSGGGGSNFMLTQPHSVSESPGKTVTISCTRSSGSIASNYVQWYQQRPGSSPTTVIYEDNQRPSGVPDRFSGSIDSSSNSASLTISGLKTEDEADYYCQSYDSSNRVFGCGTKLTVLDKTHTCPPCPAPEFEGGPSVFLFPPKPKDTLMISRTPEVTCVVVDVSHEDPEVKFNWYVDGVEVHNAKTKPREEQYNSTYRVVSVLTVLHQDWLNGKEYKCKVSNKALPASIEKTISKAKGQPREPQVYTLPPCREEMTKNQVSLWCLVKGFYPSDIAVEWESNGQPENNYKTTPPVLDSDGSFFLYSKLTVDKSRWQQGNVFSCSVMHEALHNHYTQKSLSLSPGK
chain 2: EVQLVQSGAEVKKPGSSVKVSCKASGYTITDSNIHWVRQAPGQSLEWIGYIYPYNGGTDYNQKFKNRATLTVDNPTNTAYMELSSLRSEDTAFYYCVNGNPWLAYWGQGTLVTVSSASTKGPSVFPLAPSSKSTSGGTAALGCLVKDYFPEPVTVSWNSGALTSGVHTFPAVLQSSGLYSLSSVVTVPSSSLGTQTYICNVNHKPSNTKVDKRVEPKSCDKTHTCPPCPAPEFEGGPSVFLFPPKPKDTLMISRTPEVTCVVVDVSHEDPEVKFNWYVDGVEVHNAKTKPREEQYNSTYRVVSVLTVLHQDWLNGKEYKCKVSNKALPASIEKTISKAKGQPREPQVCTLPPSREEMTKNQVSLSCAVKGFYPSDIAVEWESNGQPENNYKTTPPVLDSDGSFFLVSKLTVDKSRWQQGNVFSCSVMHEALHNRFTQKSLSLSPGK
chain 3: DIQLTQSPSTLSASVGDRVTITCRASESLDNYGIRFLTWFQQKPGKAPKLLMYAASNQGSGVPSRFSGSGSGTEFTLTISSLQPDDFATYYCQQTKEVPWSFGQGTKVEVKRTVAAPSVFIFPPSDEQLKSGTASVVCLLNNFYPREAKVQWKVDNALQSGNSQESVTEQDSKDSTYSLSSTLTLSKADYEKHKVYACEVTHQGLSSPVTKSFNRGEC
Take B3: the “% Positive” value in assay [1] was determined as 92.5%; in assay [2], 99.8%. Moreover, the gMFI in assay [1] amounted to 37800 gMFI; in assay [2], 188000 gMFI; in assay [3] it was 8960 gMFI; in assay [4], 22100 gMFI. Besides, the “Jurkat WT/KO (Fold)” value in assay [5] was 3.6 fold; in assay [6], 8.6 fold.

B4: CD3 × CD33-BspAb78 (bispecific antibody)
chain 1: EVQLVESGGGLVKFGGSLRLSCAASGFTFSRYSMNWVRQAPGKCLEWVSSISSSSSYKYYADSVKGRFTISRDNAKNSLYLQMNSLRAEDTAVYYCAREGGNSHGMDVWGQGTTVTVSSGGGGSGGGGSGGGGSGGGGSNFMLTQPHSVSESPGKTVTISCTRSSGSIASNYVQWYQQRPGSSPTTVIYEDNQRPSGVPDRFSGSIDSSSNSASLTISGLKTEDEADYYCQSYDSSNRVFGCGTKLTVLDKTHTCPPCPAPEFEGGPSVFLFPPKPKDTLMISRTPEVTCVVVDVSHEDPEVKFNWYVDGVEVHNAKTKPREEQYNSTYRVVSVLTVLHQDWLNGKEYKCKVSNKALPASIEKTISKAKGQPREPQVYTLPPCREEMTKNQVSLWCLVKGFYPSDIAVEWESNGQPENNYKTTPPVLDSDGSFFLYSKLTVDKSRWQQGNVFSCSVMHEALHNHYTQKSLSLSPGK
chain 2: EVQLVQSGAEVKKPGSSVKVSCKASGYTITDSNIHWVRQAPGQSLEWIGYIYPYNGGTDYNQKFKNRATLTVDNPTNTAYMELSSLRSEDTAFYYCVNGNPWLAYWGQGTLVTVSSASTKGPSVFPLAPSSKSTSGGTAALGCLVKDYFPEPVTVSWNSGALTSGVHTFPAVLQSSGLYSLSSVVTVPSSSLGTQTYICNVNHKPSNTKVDKRVEPKSCDKTHTCPPCPAPEFEGGPSVFLFPPKPKDTLMISRTPEVTCVVVDVSHEDPEVKFNWYVDGVEVHNAKTKPREEQYNSTYRVVSVLTVLHQDWLNGKEYKCKVSNKALPASIEKTISKAKGQPREPQVCTLPPSREEMTKNQVSLSCAVKGFYPSDIAVEWESNGQPENNYKTTPPVLDSDGSFFLVSKLTVDKSRWQQGNVFSCSVMHEALHNRFTQKSLSLSPGK
chain 3: DIQLTQSPSTLSASVGDRVTITCRASESLDNYGIRFLTWFQQKPGKAPKLLMYAASNQGSGVPSRFSGSGSGTEFTLTISSLQPDDFATYYCQQTKEVPWSFGQGTKVEVKRTVAAPSVFIFPPSDEQLKSGTASVVCLLNNFYPREAKVQWKVDNALQSGNSQESVTEQDSKDSTYSLSSTLTLSKADYEKHKVYACEVTHQGLSSPVTKSFNRGEC
As to B4, the “% Positive” value in assay [1] came out at 98%; in assay [2], 99.8%. The gMFI in assay [1] was determined as 66500 gMFI; in assay [2] it was 225000 gMFI; in assay [3], 20300 gMFI; in assay [4] it was 28800 gMFI. Moreover, the entries for the “Jurkat WT/KO (Fold)” value in assay [5] and in assay [6] were 6.6 fold and 9.9 fold, respectively.

Values taken from US20260167721A1 (ABLEXIS, published 2026).
